Laboratory results: patent US20250223280A1
*1 amine or outer side, *2 acyl side, *3 side chain or, on linkers, in order; H or OH if unused. Bridges are numbered along the chain shown (N, C = ends). [ ]: non-standard residue; d: D form. N5,N5‑dimethylglutamine = CN(C)C(=O)CC[C@H](N[*:1])C(=O)[*:2]; Pro(4S-NH2) = N[C@@H]1CN[C@H](C(=O)O)C1

B1: Intermediate 16 (peptide)
peptide: cyclo([Pro(4S-NH2)]DCTWHLGELVWCT[dP])
modifications: disulfide 3-13
SMILES: CC(C)C[C@@H]1NC(=O)[C@H](Cc2c[nH]cn2)NC(=O)[C@H](Cc2c[nH]c3ccccc23)NC(=O)[C@H]([C@@H](C)O)NC(=O)[C@@H]2CSSC[C@H](NC(=O)[C@H](Cc3c[nH]c4ccccc34)NC(=O)[C@H](C(C)C)NC(=O)[C@H](CC(C)C)NC(=O)[C@H](CCC(=O)O)NC(=O)CNC1=O)C(=O)N[C@@H]([C@@H](C)O)C(=O)N1CCC[C@@H]1C(=O)N1C[C@@H](N)C[C@H]1C(=O)N[C@@H](CC(=O)O)C(=O)N2
B2: Intermediate 17 (peptide)
peptide: cyclo([Pro(4S-NH2)]DCAWHLGALVWCT[dP])
modifications: disulfide 3-13
SMILES: CC(C)C[C@@H]1NC(=O)[C@H](C)NC(=O)CNC(=O)[C@H](CC(C)C)NC(=O)[C@H](Cc2c[nH]cn2)NC(=O)[C@H](Cc2c[nH]c3ccccc23)NC(=O)[C@H](C)NC(=O)[C@@H]2CSSC[C@H](NC(=O)[C@H](Cc3c[nH]c4ccccc34)NC(=O)[C@H](C(C)C)NC1=O)C(=O)N[C@@H]([C@@H](C)O)C(=O)N1CCC[C@@H]1C(=O)N1C[C@@H](N)C[C@H]1C(=O)N[C@@H](CC(=O)O)C(=O)N2
B3: Intermediate 18 (peptide)
peptide: cyclo([Pro(4S-NH2)]DCAWHLGQLVWCT[dP])
modifications: disulfide 3-13
SMILES: CC(C)C[C@@H]1NC(=O)[C@H](Cc2c[nH]cn2)NC(=O)[C@H](Cc2c[nH]c3ccccc23)NC(=O)[C@H](C)NC(=O)[C@@H]2CSSC[C@H](NC(=O)[C@H](Cc3c[nH]c4ccccc34)NC(=O)[C@H](C(C)C)NC(=O)[C@H](CC(C)C)NC(=O)[C@H](CCC(N)=O)NC(=O)CNC1=O)C(=O)N[C@@H]([C@@H](C)O)C(=O)N1CCC[C@@H]1C(=O)N1C[C@@H](N)C[C@H]1C(=O)N[C@@H](CC(=O)O)C(=O)N2
B4: Intermediate 19 (peptide)
peptide: PDCAWHLGELVWCTP
modifications: residue 1 = (2S,4S)-4-aminoproline; residue 12 = 6-chlorotryptophan; residue 15 = D-Pro; backbone cyclised head to tail; disulfide Cys3-Cys13
B5: Intermediate 21 (peptide)
peptide: PDCXWHLGELVWCTP
modifications: residue 1 = (2S,4S)-4-aminoproline; residue 4 (X) = homoserine; residue 15 = D-Pro; backbone cyclised head to tail; disulfide Cys3-Cys13
B6: Intermediate 23 (peptide)
peptide: cyclo([Pro(4S-NH2)]DCAWHLG[N5,N5‑dimethylglutamine]LVWCT[dP])
modifications: disulfide 3-13
SMILES: CC(C)C[C@@H]1NC(=O)[C@H](Cc2c[nH]cn2)NC(=O)[C@H](Cc2c[nH]c3ccccc23)NC(=O)[C@H](C)NC(=O)[C@@H]2CSSC[C@H](NC(=O)[C@H](Cc3c[nH]c4ccccc34)NC(=O)[C@H](C(C)C)NC(=O)[C@H](CC(C)C)NC(=O)[C@H](CCC(=O)N(C)C)NC(=O)CNC1=O)C(=O)N[C@@H]([C@@H](C)O)C(=O)N1CCC[C@@H]1C(=O)N1C[C@@H](N)C[C@H]1C(=O)N[C@@H](CC(=O)O)C(=O)N2
B7: Intermediate 24 (peptide)
peptide: PDCAWHLGELVWCTP
modifications: residue 1 = (2S,4S)-4-aminoproline; residue 12 = D-Trp; residue 15 = D-Pro; backbone cyclised head to tail; disulfide Cys3-Cys13
B8: Intermediate 25 (peptide)
peptide: cyclo([Pro(4S-NH2)]ACAWHLGALVWCT[dP])
modifications: disulfide 3-13
SMILES: CC(C)C[C@@H]1NC(=O)[C@H](C)NC(=O)CNC(=O)[C@H](CC(C)C)NC(=O)[C@H](Cc2c[nH]cn2)NC(=O)[C@H](Cc2c[nH]c3ccccc23)NC(=O)[C@H](C)NC(=O)[C@@H]2CSSC[C@H](NC(=O)[C@H](Cc3c[nH]c4ccccc34)NC(=O)[C@H](C(C)C)NC1=O)C(=O)N[C@@H]([C@@H](C)O)C(=O)N1CCC[C@@H]1C(=O)N1C[C@@H](N)C[C@H]1C(=O)N[C@@H](C)C(=O)N2
B9: Intermediate 26 (peptide)
peptide: cyclo([Pro(4S-NH2)]ACAWHLG[N5,N5‑dimethylglutamine]LVWCT[dP])
modifications: disulfide 3-13
SMILES: CC(C)C[C@@H]1NC(=O)[C@H](Cc2c[nH]cn2)NC(=O)[C@H](Cc2c[nH]c3ccccc23)NC(=O)[C@H](C)NC(=O)[C@@H]2CSSC[C@H](NC(=O)[C@H](Cc3c[nH]c4ccccc34)NC(=O)[C@H](C(C)C)NC(=O)[C@H](CC(C)C)NC(=O)[C@H](CCC(=O)N(C)C)NC(=O)CNC1=O)C(=O)N[C@@H]([C@@H](C)O)C(=O)N1CCC[C@@H]1C(=O)N1C[C@@H](N)C[C@H]1C(=O)N[C@@H](C)C(=O)N2
B10: Intermediate 27 (peptide)
peptide: cyclo([Pro(4S-NH2)]NCAWHLG[N5,N5‑dimethylglutamine]LVWCT[dP])
modifications: disulfide 3-13
SMILES: CC(C)C[C@@H]1NC(=O)[C@H](Cc2c[nH]cn2)NC(=O)[C@H](Cc2c[nH]c3ccccc23)NC(=O)[C@H](C)NC(=O)[C@@H]2CSSC[C@H](NC(=O)[C@H](Cc3c[nH]c4ccccc34)NC(=O)[C@H](C(C)C)NC(=O)[C@H](CC(C)C)NC(=O)[C@H](CCC(=O)N(C)C)NC(=O)CNC1=O)C(=O)N[C@@H]([C@@H](C)O)C(=O)N1CCC[C@@H]1C(=O)N1C[C@@H](N)C[C@H]1C(=O)N[C@@H](CC(N)=O)C(=O)N2
B11: Intermediate 28 (peptide)
peptide: cyclo([Pro(4S-NH2)]NCAWHLGALVWCT[dP])
modifications: disulfide 3-13
SMILES: CC(C)C[C@@H]1NC(=O)[C@H](C)NC(=O)CNC(=O)[C@H](CC(C)C)NC(=O)[C@H](Cc2c[nH]cn2)NC(=O)[C@H](Cc2c[nH]c3ccccc23)NC(=O)[C@H](C)NC(=O)[C@@H]2CSSC[C@H](NC(=O)[C@H](Cc3c[nH]c4ccccc34)NC(=O)[C@H](C(C)C)NC1=O)C(=O)N[C@@H]([C@@H](C)O)C(=O)N1CCC[C@@H]1C(=O)N1C[C@@H](N)C[C@H]1C(=O)N[C@@H](CC(N)=O)C(=O)N2

Legend:
IgG [1] = experiment: SPR, IgG immobilised on CM5 chip, compound as analyte; value from the legend of the grade (**** = Kd <100 nM)
IgG [2] = experiment: SPR, IgG immobilised on CM5 chip, compound as analyte; value from the legend of the grade (++++ = Kd <100 nM)

Row | Binder | Kd (IgG [1]) | Kd (IgG [2])
1 | B1 | < 100 nM | < 100 nM
2 | B2 | < 100 nM | < 100 nM
3 | B3 | < 100 nM | < 100 nM
4 | B4 | < 100 nM | < 100 nM
5 | B5 | < 100 nM | < 100 nM
6 | cyclo([Pro(4S-NH2)]DCAWHLG[N5‑methylglutamine]LVWCT[dP]) (disulfide 3-13) [Intermediate 22] | < 100 nM | < 100 nM
7 | B6 | < 100 nM | < 100 nM
8 | B7 | < 100 nM | < 100 nM
9 | B8 | < 100 nM | < 100 nM
10 | B9 | < 100 nM | < 100 nM
11 | B10 | < 100 nM | < 100 nM
12 | B11 | < 100 nM | < 100 nM
